Measured values published in article PMC6695731, “Application of a Substrate-Mediated Selection with c-Src Tyrosine Kinase to a DNA-Encoded Chemical Library” (Molecules, 2019).
Where two headings read alike, the source gives them in different places.

Assays:
[1] = target: T1, c-Src (Homo sapiens, UniProt P12931); test: ADP-Glo assay of compounds as c-Src substrates (ADP production); format: biochemical; settings: for activity as substrate in ADP-Glo assay (words): SrcDEL10 derivatives compared with parental compound; for Km / Vmax: Table S3, ADP-Glo assay of SrcDEL10 derivatives, enzyme Src
Procedure: (§1) Hit molecules were initially characterized as substrates for c-Src using the luciferase-based ADP-Glo assay (Promega). All six molecules appeared to be efficient substrates for Src kinase.
(§2) Kinase reaction was performed as follows 1x kinase buffer (25 mM Tris-HCl (pH 7.5), 2 mM dithiothreitol (DTT), 0.1 mM Na3VO4, 10 mM MgCl2), 1 mM ATP, different concentrations (1 μM to 100 μM) of substrates (either off DNA or on DNA hit molecules), and 12 nM rSrc by incubation for 2 h at 30 °C. After that, distinct 55mers were annealed to each kinase reaction, as previously described. The annealed reactions were incubated with anti Pho-Tyr loaded protein G magnetic bead at RT for 30 min. After washing by three times 20 μL 1xPBST with 1 mg/mL BSA, 1 mg/mL tRNAs), the captured samples were eluted by 20 μL of 1 mM phenylphosphate. The resulting supernatant was then used as a template in qPCR.
(§3) After the kinase reaction was performed as previous section, the reaction mixture (5 μL) was incubated with 5 µL of ADP-Glo™ reagent at RT for 40 min and then add 10 µL of kinase detection reagent at RT for 1 h. The luminescence was measure by plate reader.

[2] = target: T1, c-Src; test: NADH-based coupled enzyme assay detecting ADP generation; format: biochemical; settings: 1 mM ATP, 100 µM compound, 12 nM Src, 30 °C, 3 h
Procedure: To confirm this, compounds were tested with an NADH-based, coupled enzyme assay that also detects ADP generation. […] This additionally supported that the ADP-Glo activity observed was due to activation of ATP hydrolysis and not phosphotransfer to these compounds.
Kinase reaction was performed as follows 1x kinase buffer (25 mM Tris-HCl (pH 7.5), 2 mM dithiothreitol (DTT), 0.1 mM Na3VO4, 10 mM MgCl2), 1 mM ATP, 100 μM peptides and 12 nM Src at 30 °C for 3 h. The kinase reaction mixture was incubated with 30 unit/mL lactic dehydrogenase (LDH), 20 unit/mL pyruvate kinase (PK), 2 mM phosphoenolpyruvate (PEP), and 1 mM NADH. The absorbance of NADH was monitored at 340 nm.
Figure S8. NADH Coupled Assay of Hit Molecules with c-Src. Samples were composed of 1 mM ATP,
100 µM putative substrate molecules, and 12 nM c-Src kinase at 30 C for 3 hours. Full method description
is provided in Methods and Materials 4.6 NADH assay.

[3] = target: T1, c-Src; test: radiolabel (32P-ATP) inhibition assay of LYNtide phosphorylation by c-Src; format: biochemical; settings: 32P-ATP 50 µM, biotinylated-LYNtide 50 µM
Procedure: The original six off-DNA hits were tested for inhibition of c-Src activity. For these tests, we used ^32P-ATP as a substrate and detected phosphorylation levels of a biotinylated-LYNtide substrate after adsorption to streptavidin coated membranes. This assay should not be affected by activation of ATP hydrolysis or phosphotransfer to the small molecules. […] There was no apparent correlation of these values to the Km or kcat values in the prior assays as substrates.
Each hit molecule was preincubated with 1.2 nM c-Src at 30 °C for 30 min. The kinase reaction was initiated with the addition of 50 μM LYNtide and 50 μM ATP with 0.15 μCi gamma ^32P ATP at 30 °C for 10 min. The kinase reaction samples (2 µL) were spotted on P81 filter paper consisting of 1.5 cm squares. After air dry, the P81 papers were washed 4 times with 0.5% phosphoric acid for 5 min each. The P81 papers were washed one time with acetone for 5 min. The papers were then allowed to air dry for about 20 min. The dried P81 papers were analyzed by liquid scintillation counter.
Figure 6 Inhibition of hit molecules in a radiolabel assay with ^32P-ATP (50 µM) and biotinylated-LYNtide (50 µM) as substrates.

[4] = system: N=C(N)NCCC[C@H](NC(=O)CN(Cc1ccco1)C(=O)CCO)C(=O)N(CCc1ccc(O)cc1)Cc1ccc(C(N)=O)cc1; test: ADP-Glo assay of compounds as c-Src substrates (ADP production); format: biochemical; settings: other: ADP-Glo assay, compound as substrate of c-Src; pH 7.5; 30.0 °C
Procedure: as §1, §2, §3

[5] = system: NC(=O)C(Cc1ccc(O)cc1)NC(=O)CN(CCCCCCO)C(=O)C1Cc2ccccc2N1C(=O)CCc1ccc(O)cc1; test: as above; format: biochemical; settings: other: ADP-Glo assay, compound as substrate of c-Src; pH 7.5; 30.0 °C
Procedure: as §1, §2, §3

[6] = system: NC(=O)CN(CCCCCCO)C(=O)c1ccc(CNC(=O)[C@H](Cc2ccc(O)cc2)NC(=O)CCc2ccc(O)cc2)cc1; test: as above; format: biochemical; settings: other: ADP-Glo assay, compound as substrate of c-Src; pH 7.5; 30.0 °C
Procedure: as §1, §2, §3

[7] = system: NC(=O)CN(CCc1ccc(O)cc1)C(=O)[C@H](CC(=O)O)NC(=O)c1ccc(CN(CC2CC2)C(=O)CCO)cc1; test: as above; format: biochemical; settings: other: ADP-Glo assay, compound as substrate of c-Src; pH 7.5; 30.0 °C
Procedure: as §1, §2, §3

[8] = system: NC(=O)C1Cc2ccc(O)cc2CN1C(=O)C(CC(=O)O)NC(=O)c1ccc(CN(CC2CC2)C(=O)CCO)cc1; test: as above; format: biochemical; settings: other: Table S3, ADP-Glo assay of SrcDEL10 derivatives, enzyme Src; pH 7.5; 30.0 °C
Procedure: as §1, §2, §3

[9] = system: NC(=O)[C@H](Cc1cccnc1)NC(=O)CN(CC1CC1)C(=O)CCc1ccc(O)cc1; test: as above; format: biochemical; settings: other: ADP-Glo assay, compound as substrate of c-Src; pH 7.5; 30.0 °C
Procedure: as §1, §2, §3

[10] = system: NC(=O)CN(CCc1ccccc1)C(=O)[C@H](CC(=O)O)NC(=O)c1ccc(CN(CC2CC2)C(=O)CCO)cc1; test: as above; format: biochemical; settings: pH 7.5, 30.0 °C
Procedure: as §1, §2, §3

[11] = system: NC(=O)CN(CCc1ccc(O)cc1)C(=O)[C@H](CC(=O)O)NC(=O)c1cccc(CN(CC2CC2)C(=O)CCO)c1; test: as above; format: biochemical; settings: other: Table S3, ADP-Glo assay of SrcDEL10 derivatives, enzyme Src; pH 7.5; 30.0 °C
Procedure: as §1, §2, §3

[12] = system: O=C(O)C[C@H](NC(=O)c1ccc(CN(CC2CC2)C(=O)CCO)cc1)C(=O)NCCc1ccc(O)cc1; test: as above; format: biochemical; settings: other: Table S3, ADP-Glo assay of SrcDEL10 derivatives, enzyme Src; pH 7.5; 30.0 °C
Procedure: as §1, §2, §3

[13] = system: NC(=O)CN(CCc1ccc(O)cc1)C(=O)[C@H](CCC(=O)O)NC(=O)c1ccc(CN(CC2CC2)C(=O)CCO)cc1; test: as above; format: biochemical; settings: other: Table S3, ADP-Glo assay of SrcDEL10 derivatives, enzyme Src; pH 7.5; 30.0 °C
Procedure: as §1, §2, §3

[14] = system: NC(=O)C(Cc1cccnc1)NC(=O)CN(CCc1ccc(O)cc1)C(=O)C1Cc2c([nH]c3ccccc23)CN1C(=O)CCO; test: as above; format: biochemical; settings: other: ADP-Glo assay, compound as substrate of c-Src; pH 7.5; 30.0 °C
Procedure: as §1, §2, §3

[15] = system: NC(=O)[C@H](Cc1ccc(O)cc1)NC(=O)[C@H](CC(=O)O)NC(=O)c1ccc(CN(CC2CC2)C(=O)CCO)cc1; test: as above; format: biochemical; settings: other: Table S3, ADP-Glo assay of SrcDEL10 derivatives, enzyme Src; pH 7.5; 30.0 °C
Procedure: as §1, §2, §3

[16] = system: C[C@H](NC(=O)c1ccc(CN(CC2CC2)C(=O)CCO)cc1)C(=O)N(CCc1ccc(O)cc1)CC(N)=O; test: as above; format: biochemical; settings: other: Table S3, ADP-Glo assay of SrcDEL10 derivatives, enzyme Src; pH 7.5; 30.0 °C
Procedure: as §1, §2, §3

[17] = system: c-Src; settings: cited from earlier work
[18] = other: Table S3, ADP-Glo assay of SrcDEL10 derivatives, enzyme Src
[19] = optimal natural peptide sequence for c-Src, reference not given
[20] = c-Src substrates lacking acidic residues, Lam and coworkers

With `NC(=O)CN(CCc1ccccc1)C(=O)[C@H](CC(=O)O)NC(=O)c1ccc(CN(CC2CC2)C(=O)CCO)cc1` [Src 10-6] the “activity as substrate in ADP-Glo assay (words)” value (from here on “activity as substrate”) [1] was “comparable substrate to the parental compound”.
For `NC(=O)C(Cc1ccc(O)cc1)NC(=O)CN(CCCCCCO)C(=O)C1Cc2ccccc2N1C(=O)CCc1ccc(O)cc1` (centres unmarked) [SrcDEL16], the “ADP generation relative to compound” value [2] was “little turnover” and the IC50 [3] was 26 µM.
In the case of `CC(=O)N(Cc1ccc(C(=O)N[C@@H](CC(=O)O)C(=O)N(CCc2ccc(O)cc2)CC(N)=O)cc1)CC1CC1` [Src 10-9], the Km [1] is reported as > 100 µM.
In the case of `N=C(N)NCCC[C@H](NC(=O)CN(Cc1ccco1)C(=O)CCO)C(=O)N(CCc1ccc(O)cc1)Cc1ccc(C(N)=O)cc1` [SrcDEL8], the “ADP generation relative to compound” value [2] is reported as “large molar excess” and the IC50 [3] is reported as 96 µM.
With c-Src (Homo sapiens) the Km [4] was 19 µM, the kcat [4] was 2.5 s⁻¹ and the kcat/Km [4] was 130000 M⁻¹ s⁻¹. For the same molecule, the Km [5] was 18 µM, the kcat [5] was 0.533 s⁻¹ and the kcat/Km [5] was 30000 M⁻¹ s⁻¹. The Km [6] was 13 µM, the kcat [6] was 0.75 s⁻¹ and the kcat/Km [6] was 55000 M⁻¹ s⁻¹. The Km [7] was 18 µM, the kcat [7] was 1.37 s⁻¹ and the kcat/Km [7] was 76700 M⁻¹ s⁻¹. The Km [8] was 15.4 µM, the kcat [8] was 122. 8 1/min and the kcat/Km [8] was 7. 95 1/min/uM. For the same molecule, the Km [9] was 28 µM, the kcat [9] was 1.43 s⁻¹ and the kcat/Km [9] was 50000 M⁻¹ s⁻¹. The kcat/Km ([10]; other: ADP-Glo assay) was 6.9 min⁻¹ µM⁻¹, the Km [10, 18] was 21.1 µM and the kcat [10, 18] was 144. 9 1/min. The kcat/Km [10, 18] was 6. 86 1/min/uM, the Km [11] was 9.68 µM and the kcat [11] was 44. 66 1/min. The kcat/Km [11] was 4. 61 1/min/uM, the Km [12] was 3.79 µM and the kcat [12] was 24. 21 1/min. The kcat/Km [12] was 6. 39 1/min/uM, the Km [13] was 20.7 µM and the kcat [13] was 92. 84 1/min. For the same molecule, the kcat/Km [13] was 4. 49 1/min/uM, the Km [14] was 33 µM and the kcat [14] was 5.83 s⁻¹. The kcat/Km [14] was 183000 M⁻¹ s⁻¹, the Km [15] was 4.37 µM and the kcat [15] was 89. 33 1/min. The kcat/Km [15] was 20. 56 1/min/uM, the Km [16] was 4.31 µM and the kcat [16] was 0.683 s⁻¹. The kcat/Km [16] was 9. 52 1/min/uM.
In the case of EEEIYGIFG, the Km [17, 19] is listed as 14 µM and the kcat [17, 19] is listed as 2.9 s⁻¹.
With `NC(=O)C(Cc1cccnc1)NC(=O)CN(CCc1ccc(O)cc1)C(=O)C1Cc2c([nH]c3ccccc23)CN1C(=O)CCO` (centres unmarked) [SrcDEL5] the “ADP generation relative to compound” value [2] was “large molar excess” and the IC50 [3] was 64 µM.
With `O=C(O)C[C@H](NC(=O)c1ccc(CN(CC2CC2)C(=O)CCO)cc1)C(=O)NCCc1ccc(O)cc1` [Src 10-3] the Vmax [1] was 0.382 µM/min.
In the case of `NC(=O)[C@H](Cc1cccnc1)NC(=O)CN(CC1CC1)C(=O)CCc1ccc(O)cc1` [SrcDEL21], the “ADP generation relative to compound” value [2] is reported as “large molar excess”.
Molecule `NC(=O)CN(CCc1ccc(O)cc1)C(=O)[C@H](CC(=O)O)NC(=O)c1cccc(CN(CC2CC2)C(=O)CCO)c1` [Src 10-4] has a Vmax [1] of 0.54 µM/min.
For “YIYGSFK [efficient c-Src peptide substrate lacking acidic residues]”, the Km [17, 20] is given as 55 µM.
In the case of “GIYWHHY [efficient c-Src peptide substrate lacking acidic residues]”, the Km [17, 20] is given as 21 µM.
With `NC(=O)CN(Cc1cccc(O)c1)C(=O)[C@H](CC(=O)O)NC(=O)c1ccc(CN(CC2CC2)C(=O)CCO)cc1` [Src 10-10] the Km [1] was > 100 µM.
`C[C@H](NC(=O)c1ccc(CN(CC2CC2)C(=O)CCO)cc1)C(=O)N(CCc1ccc(O)cc1)CC(N)=O` [Src 10-2] showed a Vmax [1] of 0.492 µM/min.
With `NC(=O)CN(CCCCCCO)C(=O)c1ccc(CNC(=O)[C@H](Cc2ccc(O)cc2)NC(=O)CCc2ccc(O)cc2)cc1` [SrcDEL14] the “ADP generation relative to compound” value [2] was “little turnover” and the IC50 [3] was 18 µM.
For `CCCN(Cc1ccc(C(=O)N[C@@H](CC(=O)O)C(=O)N(CCc2ccc(O)cc2)CC(N)=O)cc1)C(=O)CCO` [Src 10-8], the “activity as substrate” value ([1]; listed as 10–8) was “lacked activity altogether”, the “activity as substrate” value ([1]; listed as Src-10-8) was “No activity” and the Km [1] was > 100 µM.
